# ± gives the standard deviation of the averaged measurements.
# B1: library; a variant is named by its letters at N, in order (parent)
# chain: GCUGUCACCGGUGUAUUACCCUAGUGGUCGACCGGUCUGAUGAGUCUNNNNNNAGACGAAACAGC
# Legend:
# hypoxanthine [1] = variants of: B1; test: normalized RNA/DNA level with ligand (relative to sTRSVctl = 100) (log10 (% of sTRSVctl)); ligand: hypoxanthine (xanthine aptamer); higher = less ribozyme self-cleavage, higher mRNA level; conditions: ligand concentration (+) RNA-Seq: 5 mM, HEK293T, reporter: mCherry (pCS4076), ligand present: yes
# How it was run: (§1)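 HEK293T cells received ligand, where used, 1 h before being transfected with 4 µg per 6-well well of library plasmids encoding reporter-linked ribozyme switches. After 72 h, RNA was extracted with EDTA and sequenced. RNA level was derived from RNA reads per DNA read, normalized to a spiked-in non-cleaving sequence or the top sequences, then scaled and log-transformed. Values were ×100 then log10, the top set was 25 sequences, and the minimum was 100 DNA reads.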
# hypoxanthine [2] = variants of: B1; test: normalized RNA/DNA level without ligand (relative to sTRSVctl = 100) (log10 (% of sTRSVctl)); ligand: hypoxanthine (xanthine aptamer); higher = less ribozyme self-cleavage, higher mRNA level; conditions: HEK293T, reporter: mCherry (pCS4076), ligand present: no
# How it was run: as §1
Variant,normalized RNA/DNA level with ligand (log10) (hypoxanthine [1]),normalized RNA/DNA level without ligand (log10) (hypoxanthine [2])
AUAUUU,1.903 ± 0.0024,1.89 ± 0.057
AUCGGA,1.94 ± 0.044,1.74 ± 0.061
AUCGGC,1.97 ± 0.099,1.86 ± 0.029
AUCGGU,1.91 ± 0.02,1.6043 ± 0.0014
AUCGGG,1.889 ± 0.0042,1.52 ± 0.06
AUCCCU,1.97 ± 0.042,1.9 ± 0.022
AUCCCA,1.92 ± 0.03,1.88 ± 0.02
AUCCCC,1.93 ± 0.025,1.87 ± 0.036
GUCAUA,1.957 ± 0.013,1.806 ± 0.013
GUCAUU,1.97 ± 0.056,1.916 ± 0.015
CUCGCA,1.94 ± 0.062,1.847 ± 0.002
CUCGCG,1.983 ± 0.0024,1.9 ± 0.084
CUCGCU,1.95 ± 0.043,1.924 ± 0.014
CUCGCC,1.99 ± 0.026,1.883 ± 0.0029
CUACUC,2.039 ± 0.013,1.95 ± 0.025
CUACUU,1.99 ± 0.028,1.83 ± 0.026
CUACUG,1.942 ± 0.0056,1.925 ± 0.0027
CUCAAC,1.98 ± 0.052,1.926 ± 0.0052
CUCAAA,1.919 ± 0.0021,1.785 ± 0.013
CUCAAG,1.88 ± 0.0045,1.742 ± 0.0067
CUCAAU,1.92 ± 0.036,1.792 ± 0.0044
GUCGUC,2.03 ± 0.088,1.93 ± 0.058
GUCGUU,1.97 ± 0.057,1.89 ± 0.032
GUCGUA,1.91 ± 0.088,1.79 ± 0.073

Variant,normalized RNA/DNA level with ligand (log10) (hypoxanthine [1]),normalized RNA/DNA level without ligand (log10) (hypoxanthine [2])
GUCGUG,1.86 ± 0.043,1.37 ± 0.018
GUCCGA,1.9508 ± 0.00054,1.732 ± 0.013
GUCCGU,1.891 ± 0.0098,1.86 ± 0.041
GUCCGC,1.9 ± 0.055,1.85 ± 0.024
CUAUGC,1.99 ± 0.044,1.88 ± 0.076
CUAUGU,1.952 ± 0.0085,1.88 ± 0.019
CUAUGA,1.95 ± 0.036,1.85 ± 0.042
CUCCGU,1.95 ± 0.051,1.88 ± 0.019
CUCCGA,1.96 ± 0.13,1.884 ± 0.0062
CUCCGG,1.93 ± 0.029,1.95 ± 0.065
CUCCGC,1.967 ± 0.019,1.95 ± 0.026
UUAUUU,1.91 ± 0.033,1.91 ± 0.031
UUAUUG,1.897 ± 0.017,1.714 ± 0.0023
UUAUUC,1.96 ± 0.045,1.936 ± 0.016
UUAGGA,1.857 ± 0.012,1.66 ± 0.032
UUAGGU,1.92 ± 0.028,1.8 ± 0.031
UUAUCA,1.953 ± 0.0031,1.83 ± 0.024
UUAUCC,1.957 ± 0.016,1.929 ± 0.013
UUAUCU,1.977 ± 0.014,1.86 ± 0.026
UUAUCG,1.905 ± 0.01,1.78 ± 0.084
AUCACU,1.98 ± 0.024,1.884 ± 0.0058
AUCACC,1.98 ± 0.029,1.953 ± 0.011
AUCACA,1.908 ± 0.0044,1.84 ± 0.023
AUCACG,1.933 ± 0.0027,1.554 ± 0.015

Variant,normalized RNA/DNA level with ligand (log10) (hypoxanthine [1]),normalized RNA/DNA level without ligand (log10) (hypoxanthine [2])
AUAUGC,1.94 ± 0.0047,1.76 ± 0.018
GUACUU,1.9422 ± 0.0012,1.889 ± 0.006
GUACUA,1.937 ± 0.014,1.86 ± 0.037
GUACUC,1.93 ± 0.053,1.92 ± 0.032
GUACUG,1.883 ± 0.0029,1.53 ± 0.056
AUCGAA,1.863 ± 0.01,1.73 ± 0.04
UUCACU,1.956 ± 0.0023,1.76 ± 0.039
UUCACG,1.93 ± 0.036,1.8 ± 0.031
UUCACC,1.984 ± 0.015,2 ± 0.05
CUAGUU,1.919 ± 0.0027,1.9151 ± 0.00062
CUAGUA,1.918 ± 0.0099,1.8 ± 0.049
UUCGGA,1.95 ± 0.034,1.75 ± 0.044
UUCGGG,1.95 ± 0.044,1.73 ± 0.027
UUCGGC,1.95 ± 0.098,1.89 ± 0.025
CUCCUU,1.99 ± 0.087,1.89 ± 0.056
CUCCUA,1.96 ± 0.075,1.87 ± 0.055
CUCCUG,1.94 ± 0.021,1.953 ± 0.0068
AUACUC,1.93 ± 0.05,1.96 ± 0.071
AUACUU,1.92 ± 0.022,1.859 ± 0.0037
UUCAAC,1.94 ± 0.044,1.873 ± 0.011
CUCCAC,1.92 ± 0.02,1.92 ± 0.036
CUCCAG,1.89 ± 0.068,1.73 ± 0.057
CUCCAA,1.91 ± 0.047,1.869 ± 0.01
CUCAGG,1.95 ± 0.041,1.88 ± 0.026

Variant,normalized RNA/DNA level with ligand (log10) (hypoxanthine [1]),normalized RNA/DNA level without ligand (log10) (hypoxanthine [2])
CUCAGU,1.97 ± 0.061,1.89 ± 0.079
CUCAGA,1.965 ± 0.012,1.8539 ± 0.00065
CUCAGC,2 ± 0.068,1.96 ± 0.01
GUAUGC,1.868 ± 0.0093,1.46 ± 0.08
GUAGUU,1.96 ± 0.041,1.87 ± 0.046
GUAGUC,1.976 ± 0.012,1.81 ± 0.05
UUCCGA,1.97 ± 0.029,1.94 ± 0.03
UUCCGU,2 ± 0.039,1.85 ± 0.025
UUCCGG,1.98 ± 0.024,1.903 ± 0.011
UUCCGC,2.011 ± 0.003,1.89 ± 0.035
UUCUAU,1.95 ± 0.047,1.867 ± 0.016
UUCUAC,1.87 ± 0.041,1.89 ± 0.085
UUCUAG,1.936 ± 0.0068,1.67 ± 0.059
AUCAUG,1.89 ± 0.021,1.63 ± 0.062
CUACGG,1.93 ± 0.047,1.98 ± 0.071
CUACGU,1.98 ± 0.067,1.9 ± 0.027
CUCGAC,1.96 ± 0.023,1.808 ± 0.017
CUCGAG,1.9019 ± 0.00066,1.6 ± 0.031
UUACGC,1.94 ± 0.029,1.81 ± 0.054
UUACGG,1.94 ± 0.04,1.85 ± 0.029
UUAUGC,1.94 ± 0.039,1.874 ± 0.0042
UUAUGU,1.92 ± 0.021,1.794 ± 0.01
CUAUAA,1.9 ± 0.037,1.8 ± 0.0052
CUAUAU,1.951 ± 0.014,1.81 ± 0.038

Variant,normalized RNA/DNA level with ligand (log10) (hypoxanthine [1]),normalized RNA/DNA level without ligand (log10) (hypoxanthine [2])
CUAUAC,1.954 ± 0.014,1.835 ± 0.0098
CUAUAG,1.93 ± 0.019,1.69 ± 0.068
GUAGGA,1.892 ± 0.002,1.66 ± 0.033
GUAGCA,1.8839 ± 9.6e-05,1.8 ± 0.023
GUAGCG,1.87 ± 0.02,1.535 ± 0.0049
CUAUCA,1.92 ± 0.041,1.86 ± 0.029
CUAUCC,1.93 ± 0.062,1.92 ± 0.049
CUAUCG,1.956 ± 0.016,1.94 ± 0.033
CUAUCU,1.9 ± 0.075,1.89 ± 0.042
GUCCCC,1.907 ± 0.017,1.825 ± 0.01
GUCCCU,1.934 ± 0.016,1.92 ± 0.05
GUCCCA,1.94 ± 0.02,1.9 ± 0.041
CUAGGC,1.94 ± 0.029,1.86 ± 0.086
CUAGGU,1.94 ± 0.028,1.88 ± 0.026
CUAUUU,2 ± 0.021,1.93 ± 0.053
AUAGAG,1.81 ± 0.037,1.31 ± 0.019
AUAGAU,1.91 ± 0.063,1.7097 ± 0.00076
CUAGCC,1.95 ± 0.037,1.86 ± 0.064
CUAGCG,1.91 ± 0.068,1.824 ± 0.0032
CUAGCU,1.987 ± 0.0096,1.93 ± 0.042

# — the supplement of paper PMC6757056
